Experimental data reported in a protein production outcome set (Wang et al. 2014).

Assay: label from the status in PepcDB records

MVDNYEYQVGASLPPDAPSYVVRKADSDFYQALKAGKYCYVFNSRQMGKSSLKVRVMQRLVNEGVACSSIDVSGQGSKDNVTQEQWYTGIVSKIVKDLQIAKPIEFRRTWWRDRHDISPVQRFDEFIEDVLLSSIQRHIIIFVDEIDSTLSLGFASEDFFALIRSCYNKRAENPAYKRLTFALLGVATPGDLIQDKTRTPFNIGEAIELDGFKIHDIEPLAKGLAGKVENPQAVMQEVLAWTGGQPFLTQRVCELLGKALSIEKRDFRSVDENQIIELVKEIIHNQIIDNWEANDKQEHLKTIRDRLLISEEISVALLGLYQQILQQVEMTADSSFEQMRLRLTGLVVQQQGKLRVYNQIYRNVFDLSWVENELGKLRFYADKLRAWVESNYQDNTCLLWGEDLEKARVWADGRKLSDVDYRFLSASVEAELNQKVVKAETRQNQALQEEEKAKQRLTEVERKINIGGGILALFVVGAIVAAIGAISANIERQQAQVVTDLERSSADLLRLRGNVGLDNLVEAMRSVKQLKQLVKNGNQLKDYPTVSPILALHNTLEYNREINQLKDDRRVQKQVFSPDTKIVANISDDGTTKLLNLQTGTITTLKHDKKVNNVAFSPNGQIVATASDDGTAKLWNLQGGKIATFKHNKEVNDVAFSPDGKTVGTASWDTAKLWNLQGGEIATLQYDSLVQNIVFSPDGKNVAIASYDSDVKLWNLQGKEIATIIHNKMTKYLSVVNNLFFSPDGKVVATTSRRDATTKLWNLQGKEIATFKYYPDIGIKNSVFSPNGKVVAIYSDDKTVNLYNLQGNTIATLKHNDKVEDIVFSPDGNTVATVSSYVHDGTVNLWNLKGNIIGTFKHQGLFQDISRLEFSPDGQTIATALLDNTAHLWNLQGKKIAIFTHYSQVLNLAFSPDGRTITTASSDGTAKLWNLQGGNIRILKHNDQINNIVFSPDGKTVATTSYDGTAKLWNLQKGEIVTLKHDGVVNDAVFSPDGKTIATTTSSDKTVKLWNLQGQLIATLKHKYEPDKEVVFSPDSNIIATSDDTAKLWNLQGQLIATLTNEGGVREVIFNPDGKSVLTTSYENAKLWNLEGQEIATFKHKHLGEVVFSPDGHTVATASVYRDSDISGSVKLWNLKGEEIITLQHGSFSDVLFSPDGKTIATVSTLSNTAKLWNLQGREIATLTHDGWINHISFSPDGKTIGIRSGDKTVKLWNLRGQEIATLKHNSSTIVSDPIFSPDGKTIATVSLDRTVRLWTEVRDGSWQQFAEYQSRRVVFSPDNKLIAIEGNYFVQLRRVQSLDSLLARGCNDLKEYLASRPDLRKEICPDNK
protein production: failed

MVEEVQKHSVHTLVFRSLKRTHDMFVADNGKPVPLDEESHKRKMAIKLRNEYGPVLHMPTSKENLKEKGPQNAPDSYPHKQYPANQGQDVEYLVTGTHPYPPGPGVALTADTKIQRMPSESAAQSLAVALPSQTRVDANRTAPAGSEYRHPGASDRSQPTAMNSMIMETSNTKNSALMAKKAPTMPKPQWHPPWKLYRVISGHLGWVRCIAVEPGNQWFVTGSADRTIKIWDLASGKLKLSLTGHISTVRGVIVSTRSPYLFSCGEDKQVKCWDLEYNKVIRHYHGHLSAVYGLDLHPTIDVLVTCSRDSTARIWDVRTKASVHTLSGHTNAVATVRCQAAEPQIITGSHDTTIRLWDLVAGKTRVTLTNHKKSVRAVVLHPLHYTFASGSPDNIKQWKFPDGGFIQNLSGHNAIINTLAVNTDGVLVSGADNGTMHLWDWRTGYNFQRVHAAVQPGSLDSESGIFACAFDRSESRLLTAEADKTIKVYREDETATEETHPVSWKPEIIKRKRF
protein production: failed

MVEGTESATGAASAGDLVEGRHAAPKARAGKGGLARSSLLMALGTVVSRATGLIRQVLQAAALGTGLLASTYNTANTVPTSLYTLLIGGALNAVLVPQLVRARATQPDGGRAYEQRLVTLVLCVLGVGTALAVWAAPGIVALYMRDTPDSHEAFELTVVFARFLLPQIFFYGVFSILGQVLNAREKFGAMMWTPVLNNVVLIGMFGAYLSLMTVPDRVEDITGQQVRFLGVCTTAGIALQALALIPFVRAAGFRFRPRFDWRGTGLGKSVHAAKWTLLLVLANQVALTVVTNYANAVDQELPKAGAGYTAYTYAQTIWMLPQSIVTVSLVTALLPRMSRAVAEDRLPDLRADLSRVLRISGVVIVPAGFLFLALGPGIATLLFAHGAADAASAQPLGHMLQAFGLGLIPFSAQYLLLRGFYAFEDTRTPFFMAVWIAVVNIALATACHLLLPARWAVTGMAAGYTLSYLAGLLLTARLLRKRLGGRRLDDGELRRTYGKLLCASAVAAGAGWAAARATATTTPTALALAAGAVTMALVYVALARLLKVSELRLPGRG
protein production: failed

MVEHATSETDLDRIVRMFDGANLIVHGFDGVIQRWTSGCEQLYGWSASEAVGNVVHDLLDTQFPAGVEELRTEVRDKGFWTGQVGHRRKDGVRLAIVTRWTVLELGDPDTLIIQSNNDVTLMQQVGDELRERQAHLQSILATVPDAMIVIDDKGCIASFSTAAEKLFGYSADEAIGQNVSMLMPSPDREAHDGYLDSYIRTGRRRIIGYGRVVVGLRKHGTTFPMELSVGEAVAGGKRTFTGFVRDLTSRHRIEAELRQSQKMEAVGQLTGGLAHDFNNLLAVIIGNLEMLEARLAEPGQLSLLREAQSAADDGARLTSQLLAFGRRQALAPTVLDVGALLGEFSDLVQRTLGDSVELRTIIPGRRLSAMADKAQLQSALLNLSINARDAMPAGGRLTIEISGVEIDADYVGMYPAIRPGRYVLISVTDTGTGMTSEVMERAFEPFFTTKPTGSGTGLGLSMVYGFAKQSAGHLQLYSEPGEGTTVRLFLPRADGGRDSHPDEQQVKDAPSPGTETILVVEDDARVRRVTISRLQTLGYSVIEATNGIDALKELEAGHDVALLFSDVAMPGMNGDELARKVRERWPRVKILLTSGFSEPHAAEKEIEAGAGWLKKPYTASEMSTRLRLLLDARHGSDSA
protein production: failed

MVEPDRVFFVRVMREWISRFTGKIIENFEIHLSQPMGFAGDIMSLTEFATSRQVKNLVLDFSDPIQRNLSQAQQIIRDGLLRCRYPQKNELDVLQDCDDPMALHVSMKTRHLVMKTNMHANDFVGISIFLNSCPELESLTFDLVTSSRFVRAPSPLVIDPVSHWLTSKSYECLEKTLKVVKITKFRGSSNELHMLQYLLRTGCVMERVDLYEAEGLNHNQKRWVLAGVEEVQQNFKRASRHLRITLHNA
protein production: not failed

MVERTAVFPAGRHSLYAEHRYSAAIRSGDLLFVSGQVGSREDGTPEPDFQQQVRLAFDNLHATLAAAGCTFDDIIDVTSFHTDPENQFEDIMTVKNEIFSAPPYPNWTAVGVTWLAGFDFEIKVIARIPEQ
protein production: not failed

MVEVSQFKDAMAQLASAVHIVTTSGETGQHGFTASAVCSVTDSPPTLLVCINSNARAYEHFVKNRVLMVNTLTAEQSSLSNIFASPLSQEERFSNASWTTLTTGSPMLQDALINFDCEITEIKHVGTHDILICKIVDIHQSNAKNALVYRNRVYHSV
protein production: not failed

MVFLVPFDGSPLADAALNRAVTYAKALDEDVVAVAFIPTGADYAERRRRVDPTEDFAAETAADDLRRKIEEATDDSELRYDDVSAHSTSELSTTIRQTARDVDANVVFLGSDDTEDIVVPIGEVTDGEDYDVHIVRRT
protein production: failed

MVGFKPTDVPPTAAVKFIGAGTAACIADLFTFPLDTAKVRLQIQGESKAVHMKTASYKGVFGTISTMVKMEGPKSLYNGLAAGLQRQMSFASVRIGLYDSVKQFYTKGSEHAGIGSRLAAGCTTGAMAVAVAQPTDVVKVRFQAQANSSANRRYKGTMDAYRTIAREEGMRGLWKGTVPNITRNAIVNCTELVTYDLIKDSILKANIMTDNLPCHFTSAFGAGFCTTVIASPVDVVKTRYMNSAKGQYTSALNCALTMFRKEGPRAFYKGFMPSFLRLGSWNVVMFVTYEQLKRAMMSAQRSREAPF
protein production: failed

MVGGVEELSIEQLASSISTYKEQLEQNFVCGLEFRIGEEKLNVRQLLSEDPRNSEYADMEKELKEVIALTEEVLATAKQNEISLSDAGVSAEATPGSPDLEGAWEKTGLRNDPIHEGKFPVGTKVQAVFSDDGEWYDATIEAHTANGYFVAYDEWGNKEEVDPDNVRPIEQNAIVEAERLAQATKNALKRKIEKAASSDYQTKTLPAKLKIDPNDPEDVKIAKRKKIHAFKSKARFEQLEVVQNKKQNDWQQFQTTKAKTKKVGFFTGRKKESIFKSPEDPFGKVGVTGSGKGLTDFQKREKHLHLKSGNAEGTDE
protein production: failed

MVGISFVFDKISNGISSYKSIKGIEQAHKSKKIASDLREYGYKLLDCRKLEAAKDAFEEALRFDPTNPEIQMGLFKSAVFQPILTKNPTYYDAEIALKKIETILKKNPNDRHAYYFMGEIYRDSDPKKASNYYKKVISLDPKSYLTGLAYNSLAYIAATEKDNDLAFYYMKKAANLCEMNPTVLNNLSYQHLIRGQYEITIEKLTRLIKHDPYKIIVFWNIINSLRMIGKFQEAYIYNHMLIECIEDETTSYHAANLGAFFFQTDPSGDGVFFKEISGKKFYSYCSMALTCYVLDLTEEANMYLEKAQKLDCFSKASAIKFLYYNIECIQKNNVKLIYKLDDIKERLIKLDLFTNVSITVARNETQYINMAKV
protein production: failed

MVGKMNEWELALKNKDCKKLLELFDDYFDEVSEDKLEEELKRVGEVAVECEDFDLIHEIAHIYEHLGEAEKGIDLYKRIVEKRKGRNTEDYAEALYYLADAYDHFGMPEEALKTYEELLELEKRIGNKREIGLTLANLAIIKDELGNVEEAIKLMEEARKIFEELKDENNYLISLIDLAHFKYELGEYEEAMKLIREVLRNPVDKEIEVNARLVESEIYAGERKYKEAAISLRNALQRSEDDEELFSLVFDSLTEFLEGLFNESRYRELVEVSPLFAELFEDDTKYFFNAIKGLAEWRLGNEKAREEFEENYKNIQNEELKALLDEWRRPKLSLGLNL
protein production: failed

MVGTLYDKMYENFVEEVDAVDNGISQWAEGEPRYALTTTLSARVARLNPTWNHPDQDTEAGFKRAMDLVQEEFLQRLDFYQHSWLPARALVEEALAQRFQVDPSGEIVELAKGACPWKEHLYHLESGLSPPVAIFFVIYTDQAGQWRIQCVPKEPHSFQSRLPLPEPWRGLRDEALDQVSGIPGCIFVHASGFIGGHRTREGALSMARATLAQRSYLPQIS
protein production: failed

MVHHDGTLQALITAYQKTPAFTDLAEATRKGYIRHIRQIEADFGDMPVQALADPRVRGEFLDWRDRLAQKSKRSADYAFSVLARILSWAHDRRKIPVNPCEKPGRLEHHHHHH
protein production: failed

MVIASIVIYKHSYSDLKQTLDSLLAVSSINKIVLVDNDHSDWASTYHHPKITYLKSDGNFGFGYGHNYAIKRFAAQSDYFLICNPDIVFESSEFEKLLNFIQTREEALFLPKIVYENGENQYGARLLPSPFNLFARRFSPKYAEQLDEDYLLKNFDLSKPIFAPYLHGCFMLFRSKALLELGGFDERFFMYMEDVDLSRRCAEKFGNIYYPLAQVIHLHEQGSYKNKTLLKAHLKSAWQYFCKWGWLYDAQRSSLNGKCLKQRNG
protein production: failed

MVIFNYILVCIIFGTTFLTIKIGIEAGAPPLFSAGIRFFLAGIILMIIFKLKRKEIMPHIFSKRIMYAGFCLTFMTFASLYWSEQYISSGLAAVLSATGPMMILLIQAKRNREKLQKEQLVALVIALIGVIFVSLPGMHQQVSFIWSIACIVLVIGELFYGIGSIRSKEILSDLSNVSPFLINGIQMFYGGILLLIASIIVEQPNVTVLTSWSVQWPILYLIFIGSIGGHGLYYWLLSKTNPVFPSTWLYVSPLIAIIVGYIILGEPLNPTMGMGACLILIGVFLANRSTLRTYFKKGRLLEKEM
protein production: failed

MVITLSRLYVHPVKSMRGLQLSHAQVSSSGLAFDRVFMITEPDGTFITARQYPKMVMFTPALMSDGLYLTAPDGESASIRFNDFLANAEPTEVWGNHFTALIAPAAINNWLSGYFQREVQLRWLGPELTRRVKPMPEIPLSFADGFPYLLINEASFKELQQRCPGSIKLEQFRPNLLVTGASAFAEDSWQVIRVGDITFDLVKPCSRCVLTTVSVERGRKHPTGEPLQTLQTFRTAENGDIDFGQNMVARNSGIIRVGDEVEVLSTKPPRPYGAGAVVESLAAPEDKSKAVAIEYNGIRFNGNNQQVLLEQLEQQNIRIPYSCRAGICGSCRITLINGEVAPLKQSAIGNDGTILCCSCIPKGDITLSGK
protein production: failed
